Experimental data as given in publication PMC5385343, “Crystal Structure of Glyceraldehyde-3-Phosphate Dehydrogenase from the Gram-Positive Bacterial Pathogen A. vaginae, an Immunoevasive Factor that Interacts with the Human C5a Anaphylatoxin” (Frontiers in Microbiology, 2017).

Columns and labels:
AvGAPDH = biological target: T1, AvGAPDH (Fannyhessea vaginae, UniProt F1T6A5); experiment: X-ray crystal structure, […] Å; assay type: binding; conditions: crystallised with 0.6 mM NAD+, 0.1 M sodium citrate pH 5.5, 20% PEG 3000; one NAD+ per protomer, active site
T1 construct: gene gap; full-length, 356 residues, N-terminal His6 tag and TEV site (tag removal not described), pET21b, E. coli Rosetta(DE3)pLysS; homotetramer

O=CC(O)COP(=O)(O)O = experiment: purified protein; conditions: 40 mM Tris-HCl pH 8.5, 2 mM EDTA, 25 °C, 0.1 μM enzyme, G3P varied 0.6-15 mM, co-substrates NAD+ and Pi, fixed concentrations not given
[1] = tested on: NC(=O)c1ccc[n+]([C@@H]2O[C@H](COP(=O)(O)OP(=O)(O)OC[C@H]3O[C@@H](n4cnc5c(N)ncnc54)[C@H](O)[C@@H]3O)[C@@H](O)[C@H]2O)c1; experiment: purified protein; conditions: 40 mM Tris-HCl pH 8.5, 2 mM EDTA, 25 °C, 0.1 μM enzyme, NAD+ varied 0.03-2 mM, co-substrates G3P and Pi, fixed concentrations not given, varied: cofactor
crystal structure = biological target: the molecule itself; experiment: crystal structure

NC(=O)c1ccc[n+]([C@@H]2O[C@H](COP(=O)(O)OP(=O)(O)OC[C@H]3O[C@@H](n4cnc5c(N)ncnc54)[C@H](O)[C@@H]3O)[C@@H](O)[C@H]2O)c1 [NAD^+]
X-ray crystal structure, 2.19 Å (AvGAPDH): NAD^+ molecules are tightly bound in an elongated cleft in all four protomers

AvGAPDH (Fannyhessea vaginae DSM 15829)
Km (O=CC(O)COP(=O)(O)O): 2600 ± 500 µM | Vmax (O=CC(O)COP(=O)(O)O): 342000 µM/min/mg | kcat (O=CC(O)COP(=O)(O)O): 57 ± 6 s⁻¹ | kcat/Km (O=CC(O)COP(=O)(O)O): 22000 ± 5000 M⁻¹ s⁻¹ | Km [1]: 80 ± 30 µM | Vmax [1]: 186000 µM/min/mg | kcat [1]: 31 ± 3 s⁻¹ | kcat/Km [1]: 384000 ± 150000 M⁻¹ s⁻¹

B1: D-glyceraldehyde-3-phosphate dehydrogenase from Atopobium vaginae, full-length, hexahistidine-tagged (enzyme)
chain: MKEDRLPANLAKGESMAVKVAINGFGRIGRLAFRQMFGHEGSEIVAINDLTDPKMLANLLKYDSSQGNYARNHSVVAGEDSITVDGKTIKIYKEADAHNLPWGELNVDVVLECTGFYTSKAKAQAHIDAGAKKVVISAPAGKDLPTIVYNVNHEILTKDDNIISAASCTTNCLAPMAKALNDFAPIQSGIMSTIHAFTGDQMVLDGPHRKGDLRRARAAAINIVPNSTGAAKAIGLVIPELNGKLIGSAQRVPVPTGSTTLLFAVVKSDKEITVDSINAAMKAASDPETFGYNEDPIVSSDIIGMTYGSLFDATQTMVQDLGNGLYQVEVVSWYDNENSYTSQMVRTIKYFEKFVA
notes: also called AvGAPDH; GAPDH from A. vaginae; source: E. coli Rossetta(DE3)pLysS, purified (HisTrap, Superdex 200)
stoichiometry N (crystal structure): 4
